# From the nanobody polyreactivity screen of Harvey et al. (2022)
# Test: yeast display, Sf9 membrane polyspecificity reagent, FACS + sequencing; frameworks hold sequencing errors
# In short: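 Using colony PCR, genes from sorted yeast display clones were amplified, then sequenced on MiSeq at 2 × 250 and filtered by CDR length. The clones had been stained with 10% biotinylated, detergent-solubilized Sf9 membrane reagent for 1 hour at 4 °C and sorted by FACS into low and high (top ~1%) gates on anti-HA and streptavidin fluorescence. Polyreactivity labels come from the gate of origin.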
row,Sequence,polyreactivity (PSR sort gate)
1,QVQLVESGGGLVQAGGSLRVSCAASGSIFDSNAMGWYRQAPGKERELVASITSSGGSTYYADSVKGRFTISRDNAKNTVYLQMNSLKPEDTAVYYCAKRAWTGYGYYYWGQGTQVTVSS,high polyreactivity
2,QVQLVESGGGLVQAGGSLRLSCAASGRIFTVNAMGWYRQAPGKESELVASIRYRGSSTYYADSVKGRFTISRDNAKNTVYLQMNSLKPEDTAVYYCAAVVRQYRPPGLYDYWGQGTQVTVSS,high polyreactivity
3,QVQLVESGGGLVQAGGSLRISCAASGSIFVTNAMGWYRQAPGKERELVAAISSGGNTNYADSVKGLFTISRDNAKNTVYLQMNSLKPEDTAVYYCAKDPDKVDYVDMDYWGQGTQVTVSS,low polyreactivity
4,QDQLVESGGGLVQAGGSLRLSSAASGSIFRGYAMGWYRQAPGKERELVAAITFSGGSTYADSVKGRFTISRDNAKITVYLQMNSLKPEDTAVYYCAAKRTGHNWFTVYPYYSWGQGTQVTVSS,low polyreactivity
5,QVQLVESGGGIVQAGGILRLSCAASGSTFAGNGMGWYRQAPGKERELVAGIDVTGGSKYYADSVKGRYTISRDNAKNTVYLQMNSLKPEDTAVFDCNARYVYHSSFAGFDYWGQGTQVTVSS,low polyreactivity
6,QVQLVESGGGLVQAGGSLRLSCAASGGIFSRYGLGWYRQAPGKERELVAAITGRGGSTYYADSVKGRFTISRDNAKNTVYLQMNSLKPEDTAVDYCAAKVRSLNWFDYWGQGTQVTVSS,high polyreactivity
7,QVHLVESGGGLVQAGGRLRLSCAASGRIFGTNAMGWYRQAPGKERELVATITRGGGNTYYADSVKGRFTISRDKAKNTVYLQRNSLKPEDTAVYYCAAKFHRFAWFSHYDYWGQGTQVTVSS,low polyreactivity
8,QVQLVESGGGLVQAGGSLRLSCAASGRIFTPYVMGWYIQAPGKERELVADINLSGDSTSYADSVKGRFTISRDNAKNTVYLQMNSLKPEDTAVYYCAADFWLVSFQWDFEYDYWGQGTHVTVSS,low polyreactivity
9,QVQIEESGGRLVQAGGILRLSCAASGRPFNVNFKGWNRQAPGKEWELVAAIRYTGGSTYADSVKGRFTISRDNAKNTVYLQMNSLKPEDTAVYYCNADTVFPFDHGMDYWGQGTQVTVSS,low polyreactivity
10,QVQLVESGGGLVQAGGSLRLSCAASGRIFASYAMGWYRQAPGKERELVAAISLSGGSTYYADSVKGRFTISRDNAKNTVYLLMNSLKPEDNAVYYCNRLSNNREYVYWGQGTQLTVSS,high polyreactivity
11,QVQLVESGGGLVQAGGSLRLSCAASGSTFVPNAMGWYRQAPGKERELVAAITVDGDDTYYADSVKGRFTISRDNAKNTVYLQMNSLKPEDTAVYYCAAEQDPWTSRYVFFASRYDYWGQGTQVTVSS,low polyreactivity
12,QVQLVESGGGLVQAGGSLRLSCASSGFTFYKYAMGWYRQAPGKERELVAAITRGDSTYYADSVKGRFTISRDNAKNTVYLQMNSLKPEDTAVYYCNAVFSYRLFNYWGQGTQVTVSS,high polyreactivity
13,QVQLVESGGGLVQAGGSLRLSCAASGRIYGDNTMGWYRQAPGKEREFVAAISFIGGSTYYADSVKGRFTISRDNAKNTVYLQMNSLKPEDTAVYYCATVERWTYWFVGYDYWGQGTQVTGSS,high polyreactivity
14,QVQLVESGGGLVQAGGSLRLSCAASGSIFHPYGMGWYRQAPGKERELVAAITSSGGDTYYADSVKGRFTFSRDIAKNTVYLQMISLKPEDTAVYYCAATGLPGYYAYDYWGQGTQVTVSS,low polyreactivity
15,QVQLVESGGGLVQAGGSLRLSCAASGSIFYKYGMGWYRQAPGKVRVLVAAIRASGDSTYYADSVKGRFTISRDNAKNTVYLQMNSQKPEDTAVYYCAARPNQSYYGLYYYWGQGTQVTVSS,low polyreactivity
16,QVQLVESGAGLVQAGGSLRLSCAASGYTFSKNTMGWYRQAPGKERELVAAISRSGGSTYYADSVKGRFTISRDNAKNTFYLQMNSLKPEDTAVYYSAKRVSTYGFSGYDYWGQGTQVTVSS,high polyreactivity
17,QVQLVESAGGLVQAGGSLRLSCAASGFTFLYYAMGWYRKAPGKEREFVAAISYTGGSTYYADSVKGRFTISRDNAKNTVYLQMNSLKPEDTAVYYCAVDGYYWFGSIFDYWGQGTQVTVSS,low polyreactivity
18,QVQLVESGGGLVQAGGSLRLRCAASGRIFGRYAMGWYRQAPGKERELVARITYIAGNTYYADSVKGRFTISRDNSKNTVYLQMKSLKPEDTAVYSCNADSYYIQYDYWGQGTQVTVSS,high polyreactivity

row,Sequence,polyreactivity (PSR sort gate)
1,QVQLVETRGGLVQAGGTLRLSCAASGYTVYRYAKGWYRQAPGKERELVAGISRDGGSTYYADSVKGRFTISRDNAKNTVYLQMNSLNPEDTAVYYCAADKTRYRLGRDYWGQGTQVTVSS,low polyreactivity
2,QVQLVESGGGLVQAGGSLRLSCASSGFIFSSYAMGWYRQAPGKERELVAAISLRSTTTYYADSVKGRFTISRDNAKNSVYLQMNSLKPEDTAVDYCAKGGSRDRYGYWGQGTQVTVSS,high polyreactivity
3,IIQAGGSLRLSCAASGRTFSGYAMGWYRPAPGKERELIADITSGGSTYYADSVKGRFTISRDNAKNTVYLQMNSLKPEDTAVYYCNKVYPVVLYEPQYDYWGQGTQVTVSS,low polyreactivity
4,QVQLVESGGGLVQEGGSLRLSCAASGRIFSYNTVMGWYIQAPGKERELVAAITFSSASTYYADSVKGRFTISRDNAKNTVYLQMNSLKPEDTAVYYCAAAIRSQSSKYYYWGQGTQVTVSS,low polyreactivity
5,QVQLVESGGGLVQAGGSLRLSCAASGRTFWPYAMGWYRQAPGKERELLAAITSDGSTTYADSVKGRFTISRDNAKNTVYLQMNSLTPEDTAVYYCAAYGYYYYQTIPMDYWGQGTQVTVSS,low polyreactivity
6,QVQLVESGGGLVQAGGSLRLICAASGRIFSYYAMGWYRQAPGKERELVARITSRGASTYYADSVKGRFTISRDNAKNTVYLQMNSLKPEDTAVYYCAARYIPIQYPSYRTWGGYSWGQGTQVTVSS,high polyreactivity
7,QVQLVESGGGLVQAGGSLRLSCAASGFIFTSYAMGWYRQAPGKERELVAAISKRGGSTYYADSVKGRFTISRDNAKNTVYLQMNSLKPEDTAVYYCATRYPQPYSPGYTYDYWGLGTQVTVSS,high polyreactivity
8,QVQLVESGGGLVQAGGSLRLSCAASGRTFAYNDRGWYRQATGKERELVAAISWSDGTTYYADSVKGRFTISRDNAKNTVYLQMYSLKPEDTAVYDCAAESYPAVVASYVSEFDYWGQGTQVPVSS,low polyreactivity
9,QVQLVESGGGLVQAGGSLRLSCAASGSIFYPYGMGWYRQAPGKEREFVAAISWSGGTTYYADSVKGRFTISRDNAKNTVYLQMNSLKKEDTGVYYCAAVSFYGVGGTWYNYWGKGTQVTVSS,high polyreactivity
10,QLQLVESRRGLVHAGGSLRLSSDASGRIFLYYAMGWYRQAPVKERELVARITSSGSTYYADSVKGLFTISRDNAKNTVYLQMNSLKPEDTAVYYCAADWYWGGIVDSWGQGTQVTVSS,high polyreactivity
11,QVQLVESGGGLVQAGGSLRLSCAASGSIFYYNAMGWYRQAPGKEREFVAAIRTRGDSTYYADSVKGRFTISRDNAKNTVYLQMNSLKPEDTAVYYCAARHYGGDGNKYYYWGHGTQVTVSS,high polyreactivity
12,QVQLVESGGCLVQAGGSHRLSCAASGSIFKYYTMGWYRQAPGKERELDAAITTRGTSTNYADSVKGRFTISRDNAKHTVYFQMNSLKPEDTAVYYCAARLSSLISMNYWGQGTQVTVSS,high polyreactivity
13,QVQLVESGGGLVQAGGSLRLSCAASGRTFKYNAMVWYRQAPGKERELVATISGSGGRKYYADSVKGRFTISRDNAKNTVYLQMNSLKPEDTAVYYCKAPRVKWLDWGQGTKVTVSS,high polyreactivity
14,QVQLVESGGGLVQAGGSLRLSCAASGLIFYYNAMGWYRQAPGKERELVATIRGSGSSTYYADSVKGRFTISRDNAKNTVYLQMNSLKPEDTAVYYCAAKGYRCFRHGGYYFKFDYWGQGTQVTVSS,high polyreactivity
15,QVQLVESGGGLVQAGGSLRLSCAASGRIFYYYTMGWYRQAPGKERELVAAITSNGGSTYYADSVKGRFTISRDNAKNTVYLQMNSLKPEDTAVYYCAADSYSYRYYYWGQGTQVTVSS,high polyreactivity
16,QVQLVESGGGLVQAGGSLRLSCAASGSIFAVNAMGWYRQAPGKERELVAAISFGGGDTYYADSVKGRFTISRDNAKNTVYLQMNSLKPEDTAVYYCAADVITRGVKYLGQVAYEYWGQGTQVTVSS,low polyreactivity
17,QVQLVESGGGLVHAGGSIRLSCSASGRTVGVNMGWYRQSPGKERELVAVISSGDSTNYADSVKGRFTISRDNAKNTFYLQMNSLKQEDTAVYYCNAYGSDRLTLDDYWGQGTQVTVSS,low polyreactivity
18,QVHLVESGGGLVQAGGSLRLSSADSGRIFTTYVMGWYRQAPGQESELVAAISARGSTYYADSVKGRFTISRDNAKNTVYLQMNSLKPEDNAVYYCAAGHRLPVYYVYPRATYNYWRQGTQVTVSS,low polyreactivity
